Measured values as given in patent US12479895B2, “C-terminal CDNF and MANF fragments, pharmaceutical compositions comprising same and uses thereof” (MyNeuroCure Oy, priority 2018, dated 2025).

What was measured:
[1] = rat, in vivo, sc
Protocol: CDNF, C-CDNF and C-MANF were iodinated with ^125I-Na using the lactoperoxidase method. The protein in question was dissolved in 30 μl of 0.25 M phosphate buffer, pH 7.5, and mixed with ^125I-Na (1 mCi/2.8 μl; 1 mCi=37 mBq; GE Healthcare). The reaction was started by adding lactoperoxidase 10 μl of 50 μg/ml and 0.05% H2O2. The mixture was incubated at room temperature for 20 min and the reaction was stopped by adding 3 volumes of 0.1 M phosphate buffer, pH 7.5, containing 0.1 M NaI, 0.42 M NaCl, and then 25 μl of 2.5% BSA was added. Free iodine and iodinated protein were separated by gel filtration on Sephadex G-25 columns (PM10; GE Healthcare). For column equilibrium and elution, 0.1 M phosphate buffer, pH 7.5, with 1% BSA was used. The iodinated growth factors were sometimes concentrated by using YM-10 Centricon columns (Millipore). The specific activity of ^125I-labeled CDNF, C-CDNF and C-MANF was measured on the Wizard 3 1480 Automatic Gamma Counter (Perkin Elmer, Wallac) and was about 10^8 cpm/μg protein. The labelled protein were kept at 4° C. and used within 3 weeks after labelling.
^125I-CDNF, ^125I C-CDNF or ^125I C-MANF (all proteins at 10^6 cpm in 10 μl) were injected subcutaneously to adult male Wistar rats. […] Radioactivity was analyzed in different brain regions by gamma counter. […] The differences between groups were analyzed ANOVA followed by Tukey-Kramers post hoc test.

rat 6-OHDA model of PD = experiment: Neurorestoration study in 6-OHDA model of PD in rats; type: in vivo; conditions: injected intrastriatally 2 weeks after 6-OHDA lesioning; rotations at 2, 4, 6 and 8 weeks post-lesion
ER stressed SCG neurons = experiment: Survival of tunicamycin-treated (ER stressed) SCG sympathetic neurons after microinjection; type: cell-based, mice; conditions: for survived neurons as % compared to neurons grown in the presence of NGF: Table 1A (FIG. 14), microinjected into cytoplasm, CDNF (400); for Fold change of survived neurons compared to neurons injected with PBS: data of Table 1 divided by values of PBS
Summary of the method: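 Newborn mouse SCG neurons grown 5-6 days with 30 ng/ml NGF, then microinjected with CDNF (FL or C-terminal) plasmids (10 ng/ul, EGFP reporter) or proteins (200 ng/ul, Dextran Texas Red). Tunicamycin (2 μM) added next day. Fluorescent survivors counted blindly after 3 days as % of initial; compared with vector or PBS (ANOVA/Dunnett).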

[2] = tested on: SOD1-G93A mouse ALS model; experiment: SOD1-G93A mouse model of ALS; type: in vivo
From the text: Transgenic SOD1 G93A mice served as a transgenic mouse model for ALS in this study. Transgenic mice containing various human SOD1 mutations develop progressive neurodegeneration and motoneuron (MN) death, providing an animal model that has been commonly used for preclinical trials and that has greatly contributed to the understanding of FALS pathogenesis (Gurney et al., 1994). […] In these mice hind limb weakness and tremulous movement appear as initial symptoms at 8-10 week of age, followed by major symptoms such as progressive motor paralysis and neurogenic amyotrophy (Shibata 2001). These mice subsequently show disability of gait, eating and drinking and die within some weeks, usually at 14-16 week of age. The transgenic mice carrying the human SOD1 with the glycine93 to alanine mutated were originally obtained from The Jackson Laboratory (http://www.jax.org), Bar Harbor, ME; Strain B6SJL-TgN (SOD1-G93A) 1Gur). Transgenic expression was analyzed by DNA tail tests and PCR, using specific oligonucleotides and conditions as done previously by others (see homepage Jackson Lab). In all the experiments the wild-type B6SJL-TgN (SOD1) 2Gur were included as controls.
In the single administration experiment, mice at around 13 weeks of age received a single intracerebroventricular injection of PBS or C-CDNF (3.75 μg that is equimolar to full-length CDNF 10 μg diluted in PBS) under isofluorane anesthesia. Mice were then evaluated for signs of disease and body weight changes twice a week. Evaluation was completed by a battery of behavioral tests designed to assess motor activity in the mice; the battery comprises tests e.g rotarod.
In the chronic infusion experiment, 12-week-old SOD1 mice were inserted a brain infusion cannula (connected via catheter-tubing to an Alzet osmotic minipump) to the right lateral ventricle under isoflurane anesthesia. C-CDNF (1.5 μg/24 h) was infused for 28 days. Motor behavior was evaluated with rotarod. Mice were evaluated for clinical signs and body weight changes.
Clinical scoring for SOD1 mice was done using instructions from Jackson laboratory. The mice were carefully examined 2 times a week after they were 12 weeks old. Animals were scored by lifting them gently by the base of their tails and observing them for tremors, stiffness and their ability to extend their limbs. The clinical scoring is on a scale of 1 to 5, based on ALSTDI (ALS therapy Development Institute) hind limb neurological scoring system.
In rotarod, mice were put to a rotating rod (accelerating speed 4-40 rpm/minute), (Ugo Basile, Italy). Cut off time was 4 minutes. Rotarod test was done 2 times a week after the mice were 12 weeks old.

B1: KYEKTLDLASVDLRKMRVAELKQILHSWGEECRACAEKTDYVNLIQELAPKYAATHPKTEL (peptide, listed as Homo sapiens)
chain: KYEKTLDLASVDLRKMRVAELKQILHSWGEECRACAEKTDYVNLIQELAPKYAATHPKTEL
blood-brain-barrier penetration [1]: capable of penetrating
cumulative amount of amphetamine-induced rotations (rat 6-OHDA model of PD): significantly reduces
survived neurons as % compared to neurons grown in the presence of NGF (ER stressed SCG neurons; AVG of exp1-2, tunicamycin 2 μM): 84.37 % NGF
survived neurons as % compared to neurons grown in the presence of NGF (ER stressed SCG neurons; exp1, tunicamycin 2 μM, counted after 3 days): 78.87 % NGF
survived neurons as % compared to neurons grown in the presence of NGF (ER stressed SCG neurons; exp2, tunicamycin 2 μM, counted after 3 days): 89.87 % NGF
Fold change of survived neurons compared to neurons injected with PBS (ER stressed SCG neurons; Table 2, AVG): 2.28 Fold to PBS
Fold change of survived neurons compared to neurons injected with PBS (ER stressed SCG neurons; Table 2, exp1): 2.30 Fold to PBS
Fold change of survived neurons compared to neurons injected with PBS (ER stressed SCG neurons; Table 2, exp2): 2.26 Fold to PBS
rescue of ER stressed SCG sympathetic neurons (result in words) (ER stressed SCG neurons; expressed from microinjected plasmids, tunicamycin 2 μM, living fluorescent neurons counted after three days): rescue
rescue of ER stressed SCG neurons (result in words) (ER stressed SCG neurons; protein or peptide microinjected into the cytoplasm, tunicamycin 2 μM, living fluorescent neurons counted after 3 days): rescue
motor coordination (rotarod performance) ([2]; 4-week chronic intracerebroventricular infusion 1.5 μg/24 h, significant week 13 until week 19, p<0.01): improves motor coordination
relative changes in body weight ([2]; 4-week chronic intracerebroventricular infusion 1.5 μg/24 h, weeks 18 and 19, p<0.05 vs PBS): Significant differences
motor behavior (rotarod, latency to fall) ([2]; single intracerebroventricular injection 3.75 μg at 13 weeks, SOD1-G93A females, vs PBS): improves the motor behavior
clinical score ([2]; single intracerebroventricular injection 3.75 μg at the age of 13 weeks, female animals, vs PBS): statistically significantly better clinical scores
